Test results taken from PMC4219644 (Journal of molecular biology, 2014).
Positions count from the first letter of the chain named. Names and notes keep the numbering of the source.

T1: human RNase 1 (human, UniProt P07998 29-156)
T1 sequence: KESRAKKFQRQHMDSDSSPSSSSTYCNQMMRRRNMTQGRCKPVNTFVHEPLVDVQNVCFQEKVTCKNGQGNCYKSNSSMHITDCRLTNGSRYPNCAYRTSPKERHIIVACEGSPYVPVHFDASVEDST

T2: mouse RNase 1 (mouse (M. musculus), UniProt P00683 26-149)
T2 sequence (looked up): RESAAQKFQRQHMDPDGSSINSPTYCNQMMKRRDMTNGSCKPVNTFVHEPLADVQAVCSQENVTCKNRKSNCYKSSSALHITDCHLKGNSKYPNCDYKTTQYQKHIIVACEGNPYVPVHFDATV

T3: bovine RNase A (bovine, UniProt P61823 27-150)
T3 sequence (looked up): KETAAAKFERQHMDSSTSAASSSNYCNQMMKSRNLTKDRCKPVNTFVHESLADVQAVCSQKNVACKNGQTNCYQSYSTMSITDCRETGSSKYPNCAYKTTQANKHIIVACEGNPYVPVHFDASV

B1: human ribonuclease inhibitor (natural protein, human (H. sapiens))
chain: MSLDIQSLDIQCEELSDARWAELLPLLQQCQVVRLDDCGLTEARCKDISSALRVNPALAELNLRSNELGDVGVHCVLQGLQTPSCKIQKLSLQNCCLTGAGCGVLSSTLRTLPTLQELHLSDNLLGDAGLQLLCEGLLDPQCRLEKLQLEYCSLSAASCEPLASVLRAKPDFKELTVSNNDINEAGVRVLCQGLKDSPCQLEALKLESCGVTSDNCRDLCGIVASKASLRELALGSNKLGDVGMAELCPGLLHPSSRLRTLWIWECGITAKGCGDLCRVLRAKESLKELSLAGNELGDEGARLLCETLLEPGCQLESLWVKSCSFTAACCSHFSSVLAQNRFLLELQISNNRLEDAGVRELCQGLGQPGSVLRVLWLADCDVSDSSCSSLAATLLANHSLRELDLSNNCLGDAGILQLVESVRQPGCLLEQLVLYDIYWSEEMEDRLQALEKDKPSLRVIS
B2: S19C mouse RNase 1, labeled with diethylfluorescein (DEFIA) (enzyme, mouse (M. musculus), UniProt P00683 26-149, looked up)
chain: T2 sequence (looked up) with S19C
modifications: diethylfluorescein (DEFIA) on the introduced cysteine 19
B3: A19C bovine RNase 1, labeled with diethylfluorescein (DEFIA) (enzyme, UniProt P61823 27-150, looked up)
chain: T3 sequence (looked up) with A19C
modifications: diethylfluorescein (DEFIA) on the introduced cysteine 19
B4: P19C human RNase 1, labeled with diethylfluorescein (DEFIA) (enzyme, UniProt P07998 29-156, looked up)
chain: T1 sequence with P19C
modifications: diethylfluorescein (DEFIA) on the introduced cysteine 19
B5: mouse ribonuclease inhibitor (natural protein, mouse (M. musculus))
chain: MSLDIQCEQLSDARWTELLPLIQQYEVVRLDDCGLTEVRCKDISSAVQANPALTELSLRTNELGDGGVGLVLQGLQNPTCKIQKLSLQNCGLTEAGCGILPGMLRSLSTLRELHLNDNPMGDAGLKLLCEGLQDPQCRLEKLQLEYCNLTATSCEPLASVLRVKADFKELVLSNNDLHEPGVRILCQGLKDSACQLESLKLENCGITAANCKDLCDVVASKASLQELDLSSNKLGNAGIAALCPGLLLPSCKLRTLWLWECDITAEGCKDLCRVLRAKQSLKELSLASNELKDEGARLLCESLLEPGCQLESLWIKTCSLTAASCPYFCSVLTKSRSLLELQMSSNPLGDEGVQELCKALSQPDTVLRELWLGDCDVTNSGCSSLANVLLANRSLRELDLSNNCMGGPGVLQLLESLKQPSCTLQQLVLYDIYWTNEVEEQLRALEEERPSLRIIS
B6: bovine ribonuclease inhibitor (natural protein, bovine (B. taurus))
chain: MKLDIQCEQLSDARWTELLPLIQQYEVVRLDDCGLTEVRCKDIGSALQANASLTELSLRTNELGDGGVLLVLQGLQSPTCKIQKLSLQNCCLTEAGCGVLPGVLRSLPTLRELHLSDNPLGDAGLRLLCEGLLDPRCRLEKLQLEYCSLTAASCEPLAAVLRATRDLKELVVSNNDIGEAGVQALCRGLAESACQLETLKLENCGLTAANCKDLCGIVASQASLKDLDLGSNRLGDAGLAELCPGLLSPSSQLRTLWLWECDLTVSGCRELCRVLQAKEALKELSLAGNSLGDEGAQLLCESLLQPGCQLESLWVKSCGFTAACCQHFSSMLTQNKHLLELQLSSNPLGDAGVHVLCQALGQPGTVLRVLWVGDCELTNSSCGGLASLLLASPSLRELDLSNNGLGDPGVLQLLGSLEQPACSLEQLVLYDIYWTEAVDERLRAVEESKPGLRIIS

What was measured:
[1] = target: anole RNase 1 (anole lizard (Anolis carolinensis))
[2] = target: chicken RNase A-1 (chicken (G. gallus))
human RNase 1 = target: T1, human RNase 1
[3] = target: B1; assay: fluorescence dissociation-rate assay
[4] = target: B5; assay: fluorescence dissociation-rate assay
mouse RNase 1 = target: T2, mouse RNase 1
bovine RNase A = target: T3, bovine RNase A

In the case of “anole ribonuclease inhibitor (natural protein)”, the stoichiometry N [1] is reported as 1.

“chicken ribonuclease inhibitor (natural protein)” gave a stoichiometry N [2] of 1.

B1 was tested, and the “stoichiometry N” value (human RNase 1) was 1.

B2: binds [3].

B3: binds [3]; binds [4].

B4: binds [4].

With B5 the “stoichiometry N” value (mouse RNase 1) was 1.

In the case of B6, the “stoichiometry N” value (bovine RNase A) is reported as 1.
